In publication PMC3982596:

Target: YFP-LacI-HP1α (human) (UniProt P45973)
Sequence of UniProt P45973 (P45973 whole entry): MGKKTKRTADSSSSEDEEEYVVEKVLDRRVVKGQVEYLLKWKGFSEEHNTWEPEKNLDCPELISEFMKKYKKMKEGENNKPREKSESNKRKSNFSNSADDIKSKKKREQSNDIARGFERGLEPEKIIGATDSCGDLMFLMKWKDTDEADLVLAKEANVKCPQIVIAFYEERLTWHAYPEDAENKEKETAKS

percent of cells with the binder at the tethered locus (% of the cells): 18
Substance: CFP-NDR1 (from UniProt Q15208 1-465) (enzyme)
